In this test the target is H3-tailless nucleosomes (nucleosomes with the first 33 residues of H3 removed) (human) (UniProt P04908).

This passage reports fold reduction of S1/2 on H3-tailless nucleosomes results from article PMC10182836.

“Cbf1ΔN (residues 209–351) (from UniProt P17106 209-351) (domain or fragment)”: the fold reduction of S1/2 on H3-tailless nucleosomes was determined as 1.3 fold. As to “Pho4ΔN (AA 250–312) (from UniProt P07270 250-312) (domain or fragment)”, the fold reduction of S1/2 on H3-tailless nucleosomes was determined as 3.1 fold.
